In data set [1] the target is T1, Lin28 (Lin28A) (Mus musculus (murine), UniProt Q8K3Y3 1-209).
T1 sequence: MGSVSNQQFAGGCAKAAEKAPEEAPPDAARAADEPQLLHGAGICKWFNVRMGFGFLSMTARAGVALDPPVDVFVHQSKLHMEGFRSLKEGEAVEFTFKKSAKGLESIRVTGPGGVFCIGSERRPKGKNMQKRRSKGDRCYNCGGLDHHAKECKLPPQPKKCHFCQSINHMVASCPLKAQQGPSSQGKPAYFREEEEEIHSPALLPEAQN
In words: 2-AP fluorescence; 500 nM RNA (stoichiometric); EMSA: 50 mM Tris pH 7.6, 50 mM NaCl, 10% glycerol, 0.05% NP-40 alternative, 2 mM DTT, 4°C; 2-AP: 50 mM Tris pH 7.6, 50 mM NaCl, 10% glycerol, 4°C; FRET: EMSA buffer, 30°C. To be noted: protein: recombinant; label: 2-AP; hairpin. On the technique in general: Mobility shift assays separate free from complexed probe on a gel.

Data set [2] deals with T1, Lin28 (Lin28A). In words: EMSA; Hill n = 1.46 ± 0.01; EMSA: 50 mM Tris pH 7.6, 50 mM NaCl, 10% glycerol, 0.05% NP-40 alternative, 2 mM DTT, 4°C; 2-AP: 50 mM Tris pH 7.6, 50 mM NaCl, 10% glycerol, 4°C; FRET: EMSA buffer, 30°C. To be noted: protein: recombinant; label: 5'-32P; hairpin.
Data set [3] deals with T1, Lin28 (Lin28A). Nature of the data set: 2-AP fluorescence; 500 nM RNA; second Lin28; EMSA: 50 mM Tris pH 7.6, 50 mM NaCl, 10% glycerol, 0.05% NP-40 alternative, 2 mM DTT, 4°C; 2-AP: 50 mM Tris pH 7.6, 50 mM NaCl, 10% glycerol, 4°C; FRET: EMSA buffer, 30°C. To be noted: protein: recombinant; label: 2-AP; hairpin.
Data set [4] has as its target T1, Lin28 (Lin28A). Nature of the data set: EMSA (stoichiometric); 0.5 µM RNA; EMSA: 50 mM Tris pH 7.6, 50 mM NaCl, 10% glycerol, 0.05% NP-40 alternative, 2 mM DTT, 4°C; 2-AP: 50 mM Tris pH 7.6, 50 mM NaCl, 10% glycerol, 4°C; FRET: EMSA buffer, 30°C. To be noted: protein: recombinant, label: 5'-32P.
For data set [5], the target named is T2, Lin28 119-180 (Mus musculus (murine), UniProt Q8K3Y3 119-180).
T2 sequence: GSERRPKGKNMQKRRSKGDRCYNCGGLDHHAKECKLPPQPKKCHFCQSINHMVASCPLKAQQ
The data set is described as above. Particulars: protein: recombinant, label: 5'-32P.

The target in data set [6] is T3, Lin28 C139A/C161A;Lin28 119-180 (Mus musculus (murine);Mus musculus …, UniProt Q8K3Y3;Q8K3Y3 1-209;119-180, C139A;C161A|).
T3 sequence 1: T1 sequence with C139A, C161A
T3 sequence 2: T2 sequence
Nature of the data set: EMSA (stoichiometric); 1:1:1 and 1:1:2 RNA:P3:P2 complexes; EMSA: 50 mM Tris pH 7.6, 50 mM NaCl, 10% glycerol, 0.05% NP-40 alternative, 2 mM DTT, 4°C; 2-AP: 50 mM Tris pH 7.6, 50 mM NaCl, 10% glycerol, 4°C; FRET: EMSA buffer, 30°C. To be noted: protein: recombinant;recombinant; tags: ;; label: 5'-32P; hairpin with 5' G-rich bulge and internal loop.

In data set [7] the target is T1, Lin28 (Lin28A). Nature of the data set: EMSA; EMSA: 50 mM Tris pH 7.6, 50 mM NaCl, 10% glycerol, 0.05% NP-40 alternative, 2 mM DTT, 4°C; 2-AP: 50 mM Tris pH 7.6, 50 mM NaCl, 10% glycerol, 4°C; FRET: EMSA buffer, 30°C. Particulars: protein: recombinant; label: 5'-32P.
Data set [8] has as its target T2, Lin28 119-180. Described as above. To be noted: protein: recombinant; label: 5'-32P.
Data set [9] concerns the target T4, Lin28 C139A/C161A (Mus musculus (murine), UniProt Q8K3Y3 1-209, C139A;C161A).
T4 sequence: T1 sequence with C139A, C161A
In words: FRET strand displacement; 25 nM RNA, 30°C; ΔFRETmax 0.77; EMSA: 50 mM Tris pH 7.6, 50 mM NaCl, 10% glycerol, 0.05% NP-40 alternative, 2 mM DTT, 4°C; 2-AP: 50 mM Tris pH 7.6, 50 mM NaCl, 10% glycerol, 4°C; FRET: EMSA buffer, 30°C. Particulars: protein: recombinant; label: 5'-Cy5 (S1); 5'-Cy3 (S3); blunt, 5-nt G-rich bulge in strand 1.

For data set [10], the target named is T1, Lin28 (Lin28A). Nature of the data set: FRET strand displacement; 25 nM RNA, 30°C; ΔFRETmax 0.84; EMSA: 50 mM Tris pH 7.6, 50 mM NaCl, 10% glycerol, 0.05% NP-40 alternative, 2 mM DTT, 4°C; 2-AP: 50 mM Tris pH 7.6, 50 mM NaCl, 10% glycerol, 4°C; FRET: EMSA buffer, 30°C. To be noted: protein: recombinant; label: 5'-Cy5 (S1); 5'-Cy3 (S3); blunt, 5-nt G-rich bulge in strand 1.

Data set [11] deals with T2, Lin28 119-180. In words: FRET strand displacement; 25 nM RNA, 30°C; ΔFRETmax 0.24, binding without displacement; EMSA: 50 mM Tris pH 7.6, 50 mM NaCl, 10% glycerol, 0.05% NP-40 alternative, 2 mM DTT, 4°C; 2-AP: 50 mM Tris pH 7.6, 50 mM NaCl, 10% glycerol, 4°C; FRET: EMSA buffer, 30°C. To be noted: protein: recombinant; label: 5'-Cy5 (S1); 5'-Cy3 (S3); blunt, 5-nt G-rich bulge in strand 1.

The target in data set [12] is T1, Lin28 (Lin28A). In words: EMSA; 1:1 complex; EMSA: 50 mM Tris pH 7.6, 50 mM NaCl, 10% glycerol, 0.05% NP-40 alternative, 2 mM DTT, 4°C; 2-AP: 50 mM Tris pH 7.6, 50 mM NaCl, 10% glycerol, 4°C; FRET: EMSA buffer, 30°C. Particulars: protein: recombinant; label: 5'-32P; hairpin.
For data set [13], the target named is T1, Lin28 (Lin28A). In words: EMSA; Hill n = 2 ± 1; EMSA: 50 mM Tris pH 7.6, 50 mM NaCl, 10% glycerol, 0.05% NP-40 alternative, 2 mM DTT, 4°C; 2-AP: 50 mM Tris pH 7.6, 50 mM NaCl, 10% glycerol, 4°C; FRET: EMSA buffer, 30°C. To be noted: protein: recombinant; label: 5'-32P; hairpin.
Data set [14] addresses T1, Lin28 (Lin28A). Nature of the data set: EMSA; Hill n = 1.3 ± 0.1; EMSA: 50 mM Tris pH 7.6, 50 mM NaCl, 10% glycerol, 0.05% NP-40 alternative, 2 mM DTT, 4°C; 2-AP: 50 mM Tris pH 7.6, 50 mM NaCl, 10% glycerol, 4°C; FRET: EMSA buffer, 30°C. To be noted: protein: recombinant; label: 5'-32P; hairpin.
For data set [15], the target named is T4, Lin28 C139A/C161A. In words: EMSA (stoichiometric); 0.5 µM RNA; EMSA: 50 mM Tris pH 7.6, 50 mM NaCl, 10% glycerol, 0.05% NP-40 alternative, 2 mM DTT, 4°C; 2-AP: 50 mM Tris pH 7.6, 50 mM NaCl, 10% glycerol, 4°C; FRET: EMSA buffer, 30°C. To be noted: protein: recombinant; label: 5'-32P; hairpin.
[16] abbreviates: hairpin with 5' G-rich bulge and internal loop.

Substitutions are numbered along the chain they refer to.

B1: TL-let-7g 2-AP9 (structured_RNA)
RNA: GCAGAUUGAGGGUCUAUGAUACCACCCGGUACAGGAGAUAUCUGCA
modifications: 2-aminopurine at A9
Take B1: the “apparent K (half saturation)” value in the data set with Lin28 (Lin28A) [1] is ~548 nM.

B2: TL-let-7g GNRA loop (structured_RNA)
RNA: B1 RNA with A24G, C26A, C27A
By Kd is commonly meant the equilibrium constant for the complex coming apart. As for B2, in the data set with Lin28 (Lin28A) [2], the Kd was 0.4 ± 0.2 nM.

B3: TL-let-7g 2-AP31 (structured_RNA)
RNA: B1 RNA
modifications: 2-aminopurine at A31
With B3, the “apparent K (half saturation)” value in the data set with Lin28 (Lin28A) [3] came to 1300 nM.

B4: TL-let-7g 2-AP36 (structured_RNA)
RNA: B1 RNA
modifications: 2-aminopurine at A36
Take B4: in the data set with Lin28 (Lin28A) [1], the “apparent K (half saturation)” value was ~548 nM.

B5: TL-let-7g (structured_RNA)
RNA: B1 RNA
With B5, the binding result (in the data set with Lin28 (Lin28A) [4] (setting [16]); with Lin28 119-180 [5] (setting [16]); in data set [6]) was “binds” in each case.

B6: TL-let-7g 2-AP21 (structured_RNA)
RNA: B1 RNA
modifications: 2-aminopurine at A21
In the case of B6, the “apparent K (half saturation)” value with Lin28 (Lin28A) [1] is 500 nM.

B7: TL19-32 (ssRNA)
RNA: AUACCACCCGGUAC
As for B7, in the data set with Lin28 (Lin28A) [7], the binding result was “no binding”.

B8: TL5-18 (ssRNA)
RNA: AUUGAGGGUCUAUA
Turning to B8, the Kd with Lin28 (Lin28A) [7] came out at 1.7 ± 0.4 nM. For the same molecule, the binding result with Lin28 119-180 [8] was “no binding”.

B9: TL33-46 (ssRNA)
RNA: AGGAGAUAUCUGCA
Turning to B9, the Kd in the data set with Lin28 (Lin28A) [7] was 0.5 ± 0.1 nM. Moreover, the binding result with Lin28 119-180 [8] is reported as “no binding”.

B10: duplexbulge (dsRNA)
RNA 1: CGUACAGAUUGAGGGUGACAUCG
RNA 2: CGAUGUCAUAUCUGUACG
For B10, the “apparent K (half saturation)” value with Lin28 C139A/C161A [9] stood at 354 nM; in the data set with Lin28 (Lin28A) [10], 58 nM; with Lin28 119-180 [11], 99 nM.

B11: TL13-26 (ssRNA)
RNA: UCUAUGAUACCACC
For B11, in the data set with Lin28 (Lin28A) [7], the Kd is ~43.3 nM.

B12: TL28-41V (ssRNA)
RNA: GGUACACCACAUAU
In the case of B12, the dissociation constant (Kd) in the data set with Lin28 (Lin28A) [7] was ~43.3 nM.

B13: TL-miR-21a (structured_RNA)
RNA: GCGACUGUUGAAUCUCAUGGCGCA
Take B13: the Kd with Lin28 (Lin28A) [12] came out at 13 nM.

B14: TL-miR-99b (structured_RNA)
RNA: GCCGCGGGGCCUUCGCCGCACACGGCA
In the case of B14, the Kd with Lin28 (Lin28A) [12] is 15 nM.

B15: TL-let-7g Δbulge (structured_RNA)
RNA: GCAGAUGUCUAUGAUACCACCCGGUACAGGAGAUAUCUGCA
For the molecule B15, in the data set with Lin28 (Lin28A) [13], the equilibrium dissociation constant (Kd) was 0.9 ± 0.2 nM.

B16: TL-let-7g Δiloop (structured_RNA)
RNA: GCAGAUUGAGGGUCUUGUACCACCCGGUACAAGAUAUCUGCA
Regarding B16, in the data set with Lin28 (Lin28A) [14], the Kd turned out to be 0.52 ± 0.09 nM.

B17: TL-let-7a-1 (structured_RNA)
RNA: GCAGAUUUAGGGUCACACCCACCACUGGGAGAUAUCUGCA
Take B17: the binding result with Lin28 (Lin28A) [4] (hairpin) and with Lin28 119-180 [5] (hairpin) was “binds” throughout.

B18: TL13-26V (ssRNA)
RNA: UCUAUCAAACCACC
Take B18: in the data set with Lin28 (Lin28A) [7], the binding result is “no binding”.

B19: TL28-41 (ssRNA)
RNA: GGUACAGGAGAUAU
For B19, the Kd with Lin28 (Lin28A) [7] turned out to be 0.29 ± 0.08 nM. Also, the binding result with Lin28 119-180 [8] is “no binding”.

B20: TL-let-7d (structured_RNA)
RNA: GCAGAUUUAGGGCAGAGAUUUUGCCCACAAGGAGUUAUCUGCA
With B20, the binding result with Lin28 C139A/C161A [15], with Lin28 (Lin28A) [4] (hairpin) and in the data set with Lin28 119-180 [5] (hairpin) was “binds” in each case.

Source of the values: paper PMC3985620, “Stepwise assembly of multiple Lin28 proteins on the terminal loop of let-7 miRNA precursors”.
